The subject of data set [1] is T1, Nc1ncnc2c1ncn2[C@@H]1O[C@H](COP(=O)(O)OP(=O)(O)OP(=O)(O)O)[C@@H](O)[C@H]1O.
T1 construct: full-length SbcC (pET28) and SbcD with C-terminal His6 (pET21b), co-expressed in E. coli BL21(DE3); SbcC2-SbcD2 heterotetramer; printed 4M0V is the SbcD dimer structure only; with Nuclease SbcCD subunit D
The experiment in a line: NADH-coupled (PK/LDH) ATPase assay, Michaelis-Menten fit. Type of data set: biochemical, Escherichia coli. As to conditions: dsDNA present, 5 mM MgCl2, 1 mM MnCl2, 50 mM KCl, 25 mM Tris pH 7.5, 37°C.

Data set [2] deals with SbcC;SbcD H84Q H84Q (Escherichia coli;Escherichia coli) (UniProt P13458+P0AG76). The data set is described as follows: fluorescence anisotropy. To be noted: 5 mM Mg2+, 1 mM Mn2+; 25 mM Tris pH 7.5, 50 mM KCl, 5 mM MgCl2, 1 mM MnCl2, 1 mM DTT, 1 mM ATP where stated; 5 nM DNA, 2-1000 nM SbcCD, 20 min at 25 C. (In general: In fluorescence polarisation assays a small probe gives low polarisation when free and higher when bound to something large.)

For orientation: Km means the concentration of substrate that gives half-maximal velocity. As for SbcCD (Escherichia coli K-12), the Michaelis constant (Km) in data set [1] was 46 ± 6 µM.
One may read the Kd as the free concentration of one partner at which half of the binding sites on the other are occupied at equilibrium, for simple one-to-one binding. The low end stands for higher affinity, the high end for lower affinity. Regarding 60 bp DNA, AT-rich positions 15-29, in data set [2], the Kd amounted to 45 nM. This counts as double-digit nanomolar.
Still for that read-out and setting: then 60 bp DNA, GC-rich positions 15-29, with 132 nM.
